This data set deals with T1, SmeT (UniProt Q8KLP4 1-219).
T1 sequence: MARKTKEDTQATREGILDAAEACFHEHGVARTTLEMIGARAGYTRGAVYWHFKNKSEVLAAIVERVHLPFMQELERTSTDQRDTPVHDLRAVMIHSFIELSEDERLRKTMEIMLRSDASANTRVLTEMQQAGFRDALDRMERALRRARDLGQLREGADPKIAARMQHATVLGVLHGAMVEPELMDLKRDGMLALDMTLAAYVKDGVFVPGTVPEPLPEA
Description: EMSA; 0.2 uM SmeT, 2 nM DNA, no triclosan, 10 mM MgCl2; EMSA: 10 mM Tris-HCl pH 7.2, 50 mM KCl, 10 mM MgCl2, 1 mM EDTA, 50 ug/ml BSA, 1 mM DTT, 5% glycerol, 100 ug/ml poly(dI-dC), room temperature 20 min (+15 min with biocide); 6% gel at 4 C. The following applies: protein: recombinant; tags: none stated after intein-CBD self-cleavage (pTYB1); chain copies: 2; label: 5' 32P; blunt. A general note: Mobility shift assays separate free from complexed probe on a gel.

B1: 30-bp smeT operator (dsDNA)
DNA 1: GTTTACAAACAAACAAGCATGTATGTATAT
DNA 2: ATATACATACATGCTTGTTTGTTTGTAAAC
With B1, the binding result is listed as “binds”.

Values taken from article PMC3128119.
